From publication PMC2289953 (The Journal of Cell Biology, 1991) come the findings set out here.

This data set deals with the molecule itself. In words: SDS-PAGE.

B1: radixin (natural protein, UniProt P26043 1-583, looked up)
chain: MPKPINVRVTTMDAELEFAIQPNTTGKQLFDQVVKTVGLREVWFFGLQYVDSKGYSTWLKLNKKVTQQDVKKENPLQFKFRAKFFPEDVSEELIQEITQRLFFLQVKEAILNDEIYCPPETAVLLASYAVQAKYGDYNKEIHKPGYLANDRLLPQRVLEQHKLTKEQWEERIQNWHEEHRGMLREDSMMEYLKIAQDLEMYGVNYFEIKNKKGTELWLGVDALGLNIYEHDDKLTPKIGFPWSEIRNISFNDKKFVIKPIDKKAPDFVFYAPRLRINKRILALCMGNHELYMRRRKPDTIEVQQMKAQAREEKHQKQLERAQLENEKKKREIAEKEKERIEREKEELMERLRQIEEQTVKAQKELEEQTRKALELEQERQRAKEEAERLDRERRAAEEAKSAIAKQAADQMKNQEQLAAELAEFTAKIALLEEAKKKKEEEATEWQHKAFAAQEDLEKTKEELKTVMSAPPPPPPPPVIPPTENEHDEQDENSAEASAELSSEGVMNHRSEEERVTETQKNERVKKQLQALSSELAQARDETKKTQNDVLHAENVKAGRDKYKTLRQIRQGNTKQRIDEFEAM
In general, stoichiometry N refers to a count of units in the complex or per binding partner. Turning to B1, the “stoichiometry N” value came to 2.
